This is an account of results in patent US20190231706A1, “SURFACTANT PEPTIDE NANOSTRUCTURES AND USES IN DRUG DELIVERY” (3-D Matrix, Ltd., priority 2017, published 2019).

Series [1] in a line: Transmittance study of surfactant peptides and peptide/siRNA complexes in aqueous solution. The note with it: for Transmittance (%) With siRNA (peptide %/siRNA %) 0.1%/0.01%: peptide 0.1%/siRNA 0.01%; for Transmittance (%) With siRNA (peptide %/siRNA %) 0.1%/0.01% / Transmittance (%) With siRNA (peptide %/siRNA %) 0.5%/0.05% / Transmittance (%) Peptide alone 0.1% (w/v) / Transmittance (%) Peptide alone 0.5% (w/v): aqueous solution pH 7.5; for Transmittance (%) With siRNA (peptide %/siRNA %) 0.1%/0.01% / Transmittance (%) With siRNA (peptide %/siRNA %) 0.5%/0.05%: * = significantly cloudy and phase-separated; for Transmittance (%) With siRNA (peptide %/siRNA %) 0.5%/0.05%: peptide 0.5%/siRNA 0.05%; for Appearance of peptide mixed with siRNA in transmittance study: peptide 0.1% and 0.5% (w/v) with siRNA 0.01% and 0.05% (w/v), pH 7.5. It counts as physicochemical.

The test system of series [2] is MCF-7 cell. The experiment in a line: Cell toxicity, luciferase emission with peptides only or peptides/negative control siRNA. It counts as cell-based. From the text:
siRNA (Luciferase GL3 duplex) was complexed with Ac-A4K-NH2 (SEQ ID NO: 55), Ac-A3KA3-NH2 (SEQ ID NO:55), Ac-A6K-NH2 (SEQ ID NO: 105), and a control agent (DharmaFECT 1; commercially available lipid transfection agent). The siRNA and peptide complexes arranged into nanospherical structures. A composition comprising the nanospherical structures was provided to tumor cells (MCF-7 cell; breast cancer cell line) in vitro to preliminary transfection efficacy and cell toxicity. Two methods were utilized for the present Example. For Method 1, MCF-7 cells were cultured on a plate. The siRNA and peptide complexes were added into the culture medium over the cells. The culture dish (96 wells) containing the siRNA and peptide complexes and the cells was incubated for 48 hours. For Method 2, a concentrated suspension of MCF-7 cells (5×10^6 cells/ml) was prepared in a tube. The siRNA and peptide complexes were applied into the suspension. The cell mixture was incubated for 1 hour in the tube. The cell mixture was plated in the culture dish and incubated for 48 hours. Luciferase emission from each sample was observed. Table 4 summarizes experimental conditions e.g., concentration of siRNA and peptide surfactants, charge ratio, and types of siRNA (e.g., Luciferase GL3 duplex or negative control thereof). The buffer used in this Example was Opti-MEM1 (serum-free). As control samples, buffer only, negative control (NC) siRNA with or without the peptide surfactants, DharmaFECT 1 with or without siRNA (or NC siRNA) were tested with the cells. Cell toxicity.

A short description of series [3]: Zeta potential by Zetasizer Nano ZS. It counts as physicochemical. Conditions: 0.5 w/v % in an aqueous solution; in mV (unit assumed). How it is done: Zeta potentials were measured by Zetasizer Nano ZS (Malvern) to characterize electrokinetic potential of the complex. Ac-A4K-NH2 (SEQ ID NO:55) concentration was 0.5 w/v % in an aqueous solution. siRNA (ribophorin II, RPN2) concentration was controlled for their various charge ratios of A4K/siRNA. The zeta potential of Ac-A4K-NH2 (SEQ ID NO:55) alone was +21.9, which represents that the surface of A4K nanosphere was positively charged because of the primary amine of lysine in Ac-A4K-NH2 (SEQ ID NO:55). As the equipment only detects dispersed phases larger than about 3.8 nm and the size of siRNA in water is about 2 nm in diameter, the measurement only reads the electrokinetic potential of Ac-A4K-NH2 (SEQ ID NO:55) or Ac-A4K-NH2 (SEQ ID NO:55)/siRNA complexes, not unassociated siRNA.

Series [4] in a line: AFM imaging of peptide and peptide/siRNA nanostructure. It counts as physicochemical. The note with it: for Diameter of the nanospheres / Nanostructure of peptide: peptide alone. From the text: Nanostructure plays an important role in formulation of agents (e.g., therapeutics, such as siRNA).
In series [5] the test system is mouse tumor model. Kind of series: Delivery of siRNA to tumor cells in vivo. Conditions: siRNA/peptide complex administered to mouse tumor model. How it is done:
The present Example describes, among other things, an exemplary use of surfactant peptides for delivery of siRNA to tumor cells in vivo. siRNA is complexed with Ac-A4K-NH2 (SEQ ID NO: 55), Ac-A3KA3-NH2 (SEQ ID NO:55), Ac-A6K-NH2 (SEQ ID NO: 105), or a control peptide. The siRNA and peptide complexes arrange into nanospherical structures. A composition comprising the nanospherical structures is administered to a mouse tumor model. One or more cancer associated genes is suppressed and the size of the tumor decreases.

For series [6] the following is noted: literature reports; cited from earlier work.
[7] abbreviates: MCF-7, peptide only or with NC siRNA, 48 hours, Methods 1 and 2.

Like-named read-outs stand apart in the source and are kept apart here. Where a SMILES comes first, the peptide text is derived from it.

With “A6K2A6: exemplary conventional self-assembling peptide for comparison (AAAAAAKKAAAAAA) [reference compound]”, in series [1], the “Transmittance (%) With siRNA (peptide %/siRNA %) 0.1%/0.01%” value is listed as 62.9* %, the “Transmittance (%) With siRNA (peptide %/siRNA %) 0.5%/0.05%” value was 12.7* %, the “Transmittance (%) Peptide alone 0.1% (w/v)” value is recorded as 98.5% and the “Transmittance (%) Peptide alone 0.5% (w/v)” value was 83.1%.
For the compound `CC(=O)N[C@@H](C)C(=O)N[C@@H](C)C(=O)N[C@@H](C)C(=O)N[C@@H](C)C(=O)N[C@@H](CCCCN)C(N)=O` [Ac-A4K-NH2, Ac-AAAAK-NH2] (Ac-AAAAK-NH2), the “Cell toxicity (decrease in luciferase emission) compared with DharmaFECT” value in series [2] (setting [7]) is listed as “less toxic than DharmaFECT”. Moreover, the “Zeta potential of peptide alone” value in series [3] is “+21.9”. Moreover, in series [4], the “Diameter of the nanospheres” value is 85 nm and the Nanostructure of peptide result was “nanospheres (i.e., spherical nanovesicles)”. Also, in series [5], the “Cancer associated gene expression” value was “suppressed” and the “Size of the tumor” value is reported as “decreases”.
Consider `CC(=O)N[C@@H](C)C(=O)N[C@@H](C)C(=O)N[C@@H](C)C(=O)N[C@@H](CCCCN)C(=O)N[C@@H](C)C(=O)N[C@@H](C)C(=O)N[C@@H](C)C(N)=O` [Ac-A3KA3-NH2, Ac-AAAKAAA-NH2] (Ac-AAAKAAA-NH2), for which the “Cell toxicity (decrease in luciferase emission) compared with DharmaFECT” value in series [2] is reported as “less toxic than DharmaFECT”. Also, in series [4], the “Diameter of the nanospheres” value worked out at 30 nm and the Nanostructure of peptide entry is listed as “nanospheres (i.e., spherical nanovesicles)”. Also, in series [5], the “Cancer associated gene expression” value is “suppressed” and the “Size of the tumor” value is “decreases”.
Take “AAAAAAK [A6K, exemplary conventional self-assembling peptide for comparison, reference compound]”: in series [6], the “Nanostructure / self-assembly (previously reported)” value was “nanotubes”. For the same compound, in series [1], the “Appearance of peptide mixed with siRNA in transmittance study” value (shortened to “Appearance of peptide mixed with siRNA”) was “cloudy and phase separated”; the “Transmittance (%) With siRNA (peptide %/siRNA %) 0.1%/0.01%” value is 38.4* %; the “Transmittance (%) With siRNA (peptide %/siRNA %) 0.5%/0.05%” value was 15.3* %; the “Transmittance (%) Peptide alone 0.1% (w/v)” value was found to be 94.8%. The “Transmittance (%) Peptide alone 0.5% (w/v)” value in series [1] was determined as 98.7%.
As for Ac-AAAK-NH2 [Ac-A3K-NH2], in series [4], the “Diameter of the nanospheres” value came to 28 nm and the Nanostructure of peptide result is on record as “nanospheres”.
On to AAAAK [A4K], for which the “Nanostructure / self-assembly (previously reported)” value in series [6] is given as “does not exhibit relevant self-assembly in water”. Further, the Nanostructure of peptide entry in series [4] is given as “nanospheric structures (spherical nanovesicles)”. In addition, in series [1], the “Appearance of peptide mixed with siRNA” value was “transparent and substantially without phase separation”; the “Transmittance (%) With siRNA (peptide %/siRNA %) 0.1%/0.01%” value turned out to be 98.7%; the “Transmittance (%) With siRNA (peptide %/siRNA %) 0.5%/0.05%” value is recorded as 97.5%; the “Transmittance (%) Peptide alone 0.1% (w/v)” value is recorded as 99.4%. Also, in series [1], the “Transmittance (%) Peptide alone 0.5% (w/v)” value worked out at 97.8%.
On to “AAAAAK [A5K, exemplary conventional self-assembling peptide for comparison, reference compound]”, for which, in series [1], the “Appearance of peptide mixed with siRNA” value is “cloudy and phase separated”; the “Transmittance (%) With siRNA (peptide %/siRNA %) 0.1%/0.01%” value is reported as 95.5%; the “Transmittance (%) With siRNA (peptide %/siRNA %) 0.5%/0.05%” value is reported as 22.7* %; the “Transmittance (%) Peptide alone 0.1% (w/v)” value turned out to be 99.2%. The “Transmittance (%) Peptide alone 0.5% (w/v)” value in series [1] is 71.9%.
On to AAAK [A3K], for which the Nanostructure of peptide entry in series [4] was “nanospheric structures”. Also, in series [1], the “Appearance of peptide mixed with siRNA” value was “transparent and substantially without phase separation”; the “Transmittance (%) With siRNA (peptide %/siRNA %) 0.1%/0.01%” value came to 81.1%; the “Transmittance (%) With siRNA (peptide %/siRNA %) 0.5%/0.05%” value is 77.3%; the “Transmittance (%) Peptide alone 0.1% (w/v)” value is on record as 96.2%. For the same compound, in series [1], the “Transmittance (%) Peptide alone 0.5% (w/v)” value is reported as 99.6%.
In the case of `CC(=O)N[C@@H](C)C(=O)N[C@@H](C)C(=O)N[C@@H](C)C(=O)N[C@@H](C)C(=O)N[C@@H](C)C(=O)N[C@@H](C)C(=O)N[C@@H](CCCCN)C(N)=O` [Ac-A6K-NH2, reference compound] (Ac-AAAAAAK-NH2), in series [2] (setting [7]), the “Cell toxicity (decrease in luciferase emission) compared with DharmaFECT” value is recorded as “less toxic than DharmaFECT”. Further, the “Thickness of each layer of double layer structure” value in series [4] (0.1% (w/v)) amounted to 0.8 nm. In addition, in series [5], the “Cancer associated gene expression” value is given as “suppressed” and the “Size of the tumor” value is “decreases”.
For the compound AAAKAAA [A3KA3], the Nanostructure of peptide entry in series [4] is “nanospheric structures (spherical nanovesicles)”. In addition, in series [1], the “Appearance of peptide mixed with siRNA” value was “transparent and substantially without phase separation”; the “Transmittance (%) With siRNA (peptide %/siRNA %) 0.1%/0.01%” value is recorded as 98.7%; the “Transmittance (%) With siRNA (peptide %/siRNA %) 0.5%/0.05%” value is listed as 88.2%; the “Transmittance (%) Peptide alone 0.1% (w/v)” value is reported as 99.2%. The “Transmittance (%) Peptide alone 0.5% (w/v)” value in series [1] was 97.5%.
